Consider four molecules from patent US20250320268A1 (SHATTUCK LABS, published 2025).

A word on the Kd: it is a measure of binding affinity in units of concentration. For orientation: koff means a measure of how fast the partners let go of each other. By kon is commonly meant the rate constant with which the complex forms. In general, EC50 refers to the concentration giving half of the maximal effect.

Values joined by “and” are separate entries in the source; they are usually repeats but may differ in a detail not shown here. Equal entries are not always repeated.

The target of assay [1] is recombinant hCD47-Fc (human) (UniProt Q08722). Put plainly: SIRPα blocking ELISA: plate-bound hCD47, labelled competitor recombinant hSIRPα. (ELISA stands for enzyme-linked immunosorbent assay.)
recombinant hCD47-Fc (human), sequence (Q08722 19-139 limits assumed): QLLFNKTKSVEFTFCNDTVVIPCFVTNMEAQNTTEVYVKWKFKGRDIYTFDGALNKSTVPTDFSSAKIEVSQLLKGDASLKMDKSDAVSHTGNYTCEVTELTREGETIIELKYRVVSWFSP
Assay [2] deals with recombinant human FcγR1A, histidine-tagged (human) (UniProt P12314). Nature of the assay: SPR (ProteOn XPR36); His-tagged FcγR1A immobilized, binder as analyte.
recombinant human FcγR1A, histidine-tagged (human), sequence (P12314 16-288): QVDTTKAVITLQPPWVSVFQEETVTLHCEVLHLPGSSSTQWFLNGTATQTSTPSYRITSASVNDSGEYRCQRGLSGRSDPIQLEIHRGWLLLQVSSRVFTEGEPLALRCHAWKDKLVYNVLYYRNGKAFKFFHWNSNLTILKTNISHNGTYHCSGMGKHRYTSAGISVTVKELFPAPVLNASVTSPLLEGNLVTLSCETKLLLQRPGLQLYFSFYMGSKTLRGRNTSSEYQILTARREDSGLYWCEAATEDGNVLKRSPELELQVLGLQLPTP
Assay [3] deals with T1, recombinant human CD40, histidine-tagged (human, UniProt P25942 21-193).
T1 construct: Immobilized ligand in SPR and coating reagent in the single-sided ELISA; also called CD40 (AcroBiosystems); hCD40-His; not shown: histidine tag
T1 sequence (P25942 21-193 limits assumed): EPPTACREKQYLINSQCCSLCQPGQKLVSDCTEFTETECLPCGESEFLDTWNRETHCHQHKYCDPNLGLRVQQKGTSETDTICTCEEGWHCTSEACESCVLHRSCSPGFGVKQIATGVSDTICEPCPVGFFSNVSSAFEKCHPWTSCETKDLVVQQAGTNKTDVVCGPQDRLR
Nature of the assay: SPR (ProteOn XPR36); His-tagged CD40 immobilized, binder as analyte.

In a further assay the target is T2, recombinant mouse CD47 (mouse, UniProt Q61735 19-140, limits assumed).
T2 construct: also called mCD47-Fc
T2 sequence (looked up): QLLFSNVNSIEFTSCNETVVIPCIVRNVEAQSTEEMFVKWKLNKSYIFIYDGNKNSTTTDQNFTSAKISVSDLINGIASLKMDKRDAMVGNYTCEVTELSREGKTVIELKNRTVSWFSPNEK
Nature of the assay: dual ELISA: coat mCD47-Fc, detect mCD40-His, tertiary anti-his-HRP. On the procedure: Plates were washed with TBS-T (Tris-buffered saline containing 0.1% Tween 20) and then detection antibody was added for 1 hour at room temperature in the dark. Detection antibodies included anti-hIgG-HRP, anti-mIgG-HRP, anti-hCD40L, anti-mCD40L, and then anti-Goat-HRP (all antibodies were obtained from Jackson ImmunoResearch Laboratories or R&D Systems). Plates were washed again and SureBlue TMB Microwell Peroxidase Substrate (KPL; purchased from VWR, catalog no. 95059-282) was added to each well and allowed to incubate at room temperature in the dark. To stop the reaction, 1N sulfuric acid was added to each well and absorbance at 450 nm was read immediately on a BioTek plate reader. Samples were run at a minimum in triplicate and at multiple dilutions.

On to “anti-human CD47 blocking antibody, clone CC2C6 (BioLegend)”, for which the IC50 (read off the curve) in assay [1] was 10 nM.
With “human IgG1 (positive control for Fcγ receptors and FcRn) (antibody)”, in assay [2], the Kd was 8.42 nM, the koff came to 0.000156 s⁻¹ and the kon was 18400 M⁻¹ s⁻¹.

B1: recombinant hCD40L-Fc (positive control analyte) (Fc fusion, human, UniProt P29965 116-261, looked up)
chain: GDQNPQIAAHVISEASSKTTSVLQWAEKGYYTMSNNLVTLENGKQLTVKRQGLYYIYAQVTFCSNREASSQAPFIASLCLKSPGRFERILLRAANTHSSAKPCGQQSIHLGGVFELQPGASVFVNVTDPSQVSHGTGFTSFGLLKL
notes: also called hCD40L-Fc (AcroBiosystems); not shown: Fc part of a bought fusion
Consider B1, for which, in assay [3], the Kd came to 1.15 nM, the koff stood at 0.000351 s⁻¹ and the kon amounted to 304000 M⁻¹ s⁻¹.

B2: murine SIRPα-Fc-CD40L chimeric protein surrogate (Fc fusion)
chain: KELKVTQPEKSVSVAAGDSTVLNCTLTSLLPVGPIRWYRGVGPSRLLIYSFAGEYVPRIRNVSDTTKRNNMDFSIRISNVTPADAGIYYCVKFQKGSSEPDTEIQSGGGTEVYVLAKPSPPEVSGPADRGIPDQKVNFTCKSHGFSPRNITLKWFKDGQELHPLETTVNPSGKNVSYNISSTVRVVLNSMDVNSKVICEVAHITLDRSPLRGIANLSNFIRVSPTVKVTQQSPTSMNQVNLTCRAERFYPEDLQLIWLENGNVSRNDTPKNLTKNTDGTYNYTSLFLVNSSAHREDVVFTCQVKHDQQPAITRNHTVLGFAHSSDQGSMQTFPDNNATHNWNVPRDCGCKPCICTVPEVSSVFIFPPKPKDVLTITLTPKVTCVVVDISKDDPEVQFSWFVDDVEVHTAQTQPREEQFNSTFRSVSELPIMHQDWLNGKEFKCRVNSAAFPAPIEKTISKTKGRPKAPQVYTIPPPKEQMAKDKVSLTCMITDFFPEDITVEWQWNGQPAENYKNTQPIMNTNGSYFVYSKLNVQKSNWEAGNTFTCSVLHEGLHNHHTEKSLSHSPGKHRRLDKVEEEVNLHEDFVFIKKLKRCNKGEGSLSLLNCEEMRRQFEDLVKDITLNKEEKKENSFEMQRGDEDPQIAAHVVSEANSNAASVLQWAKKGYYTMKSNLVMLENGKQLTVKREGLYYVYTQVTFCSNREPSSQRPFIVGLWLKPSSGSERILLKAANTHSSSQLCEQQSVHLGGVFELQAGASVFVNVTEASQVIHRVGFSSFGLLKL
notes: also called mSIRPα-Fc-CD40L; mouse SIRPα-Fc-CD40L
In the case of B2, the EC50 with recombinant mouse CD47 is 7.37 nM and 8.73 nM.
